From paper PMC5030355 come the findings set out here.

A value given as a limit tells only on which side of the number the result lay.

The test system of the data set is RIG-I (recombinant). Briefly: filter binding. The following applies: 25 mM Tris-HCl pH 7.5, 150 mM NaCl, 1.5 mM MgCl2, room temperature, filter binding with 600 nM BSA, 30 min, pull-down in lysate with 0.5% Triton X-100.

In the case of polyU/UC RNA 2'FdU, under “2'-fluoro-deoxyuridine substituted for U”, the Kd (in general, the constant that tells how readily two partners part at equilibrium) was 29 nM. With polyU/UC RNA canonical, the Kd was found to be 186 nM. Consider polyU/UC RNA m6A, for which the Kd (N6-methyladenosine substituted for A) was above 1070 nM. Take polyU/UC RNA pseudouridine: the Kd (pseudouridine substituted for U) turned out to be 255 nM.
